Consider 25 sequences from the DeepSol protein solubility set.

This data set in a line: soluble on expression in E. coli; label from the status in PepcDB or PDB records.
For the sequence “MQLSKALSLRRVLNSGFHPFQVIPKPDVWMKRERLNRFTAWQYASERSTVKGAYRKEDKIFAYLNMQRQDERNLEKFHAEERVRTALEEHDMEYSKFKSILSQSHILLDNICLSQLAIYEPRSFRSLVAFAKELARQEGMNVIPDDAEFSYDVHVDNKSVLRKPLPRAVEYTRGASENHTNKPRKLREDEY”, the “soluble on expression in E. coli” value is reported as “not soluble”. For “MQMIHKEGWIEVICGSMFSGKSEELIRRVRRATYGRLKVQVFKPAIDNRYSEQEVVSHNGNKVCAIPVERAMSILEQWSEDTDIVAIDEVQFFDEDVIGVVDYLADHGVRVICAGLDQDFRGEPFEPTRTLMAMAEYVTKLQAICPVCGSPASRTQRLIDGKPASYHDPIILVGAAEAYEPRCRHCHQVTNKPSKLPETASSGELEHHHHHH” the value was “soluble”; for “MQNRLTIKDIARLSGVGKSTVSRVLNNESGVSQLTRERVEAVMNQHGFSPSRSARAMRGQSDKVVAIIVTRLDSLSENLAVQTMLPAFYEQGYDPIMMESQFSPQLVAEHLGVLKRRNIDGVVLFGFTGITEEMLAHWQSSLVLLARDAKGFASVCYDDEGAIKILMQRLYDQGHRNISYLGVPHSDVTTGKRRHEAYLAFCKAHKLHPVAALPGLAMKQGYENVAKVITPETTALLCATDTLALGASKYLQEQRIDTLQLASVGNTPLMKFLHPEIVTVDPGYAEAGRQAACQLIAQVTGRSEPQQIIIPATLS”, “soluble”; for “MQPELTKTPANFPLSPLGAVVILGDIPNPELLAIPLAPTPSTMFGPRGACLVAETGALWVSDTGHHRLLGWRKLPTTDSQPADWVIGQPDFYHEGQNAKGTPGRTTVSVPTGICVCGGGLAIADAWNHRVLIWHKIPEDSNVPADLVLGQRNFSENEPNRGKQSPDANTMHWPYGVAYHQGKLFVADTGNRRLLIWQQLPTENGQPADIVLGQPDMISRNENGGGSPTAGSMRWCHDIAFWDDNLVVTDAGNNRVMIWQGIPTENNAPCAVVLGQKSFDLVEMNQGVYFPSAGSLSMPYGVGATEDWLMVADTANSRLLGWRKRESILLLQGAIADGIIGQNSFQSKSENRHFGLPTRDSLNWCYGVKVCGSTAVISDSGNNRVLLWRFLLEHHHHHH”, “not soluble”.

In the case of “MQPGYNGHGRGIYNFIGMTANRRSNLHNTVALDPDILTDTFQQCLFYQYAQCSILLMKEGATGFPFALYAPSTVSSYLYMR”, the “soluble on expression in E. coli” value is reported as “not soluble”.

With “MQPTLGAQAGSMLFRDASGRYCASLAGYRFLSAFQPIFYKGGSLFGHEALLRVVDEGGEWRPPDRFLASLAPGMALEADRLARLIHVRNFAQSGQGGCLCLNLMPATVQEDQSGRTHLPLLNSMLQSVELDSGGVIFELPEFDVEHHGQPLLQGMRHAADMGFGLAVDDFGALPARRDKMGELCPDIIKIDRSLLLDYMAGQTQRLPALLEFGWQIGSRMLVEGIETAEQLEAMRALGVELYQGYYLGRPGELPVLRQL”, the “soluble on expression in E. coli” value is given as “not soluble”. Under “MQPYWAAIEADIERYLKKSITIRPPETVFGPMHHLTFAAPATAASTLCLAACELVGGDRSQAMAAAAAIHLVHAAAYVHEHLPLTDGSRPVSKPAIQHKYGPNVELLTGDGIVPFGFELLAGSVDPARTDDPDRILRVIIEISRAGGPEGMISGLHREEEIVDGNTSLDFIEYVCKKKYGEMHACGAACGAILGGAAEEEIQKLRNFGLYQGTLRGMMEMKNSHQLIDENIIGKLKELALEELGGFHGKNAELMSSLVAEPSLYAAHHHHHHHH” stands “soluble”; under “MQQLINSLFMEAFANPWLAEQEDQARLDLAQLVAEGDRLAFSTDSYVIDPLFFPGGNIGKLAICGTANDVAVSGAIPRYLSCGFILEEGLPMETLKAVVTSMAETARAAGIAIVTGDTKVVQRGAVDKLFINTAGMGAIPANIHWGAQTLTAGDVLLVSGTLGDHGATILNLREQLGLDGELVSDCAVLTPLIQTLRDIPGVKALRDATRGGVNAVVHEFAAACGCGIELSEAALPVKPAVRGVCELLGLDALNFANEGKLVIAVERNAAEQVLAALHSHPLGKDAALIGEVVERKGVRLAGLYGVKRTLDLPHAEPLPRIC”, “not soluble”; under “MQRETVWLVEDEQGIADTLVYMLQQEGFAVEVFERGLPVLDKARKQVPDVMILDVGLPDISGFELCRQLLALHPALPVLFLTARSEEVDRLLGLEIGADDYVAKPFSPREVCARVRTLLRRVKKFSTPSPVIRIGHFELNEPAAQISWFDTPLALTRYEFLLLKTLLKSPGRVWSRQQLMDSVWEDAQDTYDRTVDTHIKTLRAKLRAINPDLSPINTHRGMGYSLRGL”, “soluble”.

For the sequence “MQRGIVWVVDDDSSIRWVLERALAGAGLTCTTFENGNEVLAALASKTPDVLLSDIRMPGMDGLALLKQIKQRHPMLPVIIMTAHSDLDAAVSAYQQGAFDYLPKPFDIDEAVALVERAISHYQE”, the “soluble on expression in E. coli” value is listed as “soluble”. As to “MQRMAKMKAMEKHHGYKVLTMIHRREMISLFGLPAYQSIDEEDAEQVLRWIRKYRDYPLELILHTPGGQLHASIQIARALKNHPKKTRVLIPHYSMSGGTIIALAADEIVMDKDAVIGPIDPQVGDPIRGVFPAPSWIHAAETKKEDADDSTLVMSDISRKALRLTRNVAKELLEGKIQPDGKEDRLEEVVEKLVSGEMIHSTPLSAREAKELGLSVNTDFPEDVHDFMRLFRPVKKTVEYVG”, the “soluble on expression in E. coli” value is on record as “not soluble”. On to “MQRTGELPAEHVPVILESSGAGDFHLIDSGNGLKLEQYGDYRVVRPEAQALWRPLVPDRVWQNADAIFTGDTDEDGMGRWRFPKEALGETWPLSLLGVEFLGRFTAFRHVGVFPEQIVHWEWLKNAVETADRPLKVLNLFGYTGVASLVAAAAGAEVTHVDASKKAIGWAKENQVLAGLEQAPIRWICEDAMKFIQREERRGSTYDIILTDPPKFGRGTHGEVWQLFDHLPLMLDICREILSPKALGLVLTAYSIRASFYSMHELMRETMRGAGGVVASGELVIREAGLDGKTPGRVLSTSLFSRWEPK”, for which the “soluble on expression in E. coli” value is given as “soluble”. Turning to “MQSRQRLLISVLAAGESRRFQGAKLAQSLATSTSEDRGQSLLQRHIACLANFIVSPNDRRESLGALDAELLVVIGAHQTLLRPQLEALGAVKLTLLDNPHWRTGLASSLGVAAAYAKVHQFDGMLLTLADQVALTLNDYRQLIETWQNCRKSVAAHYSSQIGELDELGAPAIFNASILDSLTDLTGDRGAKSILKQLAYVGELEAVALPNAAIDIDTKADLALWLALKELEHHHHHH”, the “soluble on expression in E. coli” value is reported as “not soluble”. Turning to “MQTFFIAPTDFGVGLTSISLGLVRTLERAGLKVGFFKPIAQPHPGDLGPERSTELMARTHGLKPPKPLGLAHVERMLGDGQLDELLEEIINLYQQAAVGKDVLVVEGMVPTRSASYAARVNLHLAKSLDAEVILVSAPENEVLTELSGRVELQAQLFGGPKDPKVLGVILNKVRTEESMEVFAARLKEHSPLLRNGDFRLLGCIPYRAELNAPRTRDVAELLGAQ”, the “soluble on expression in E. coli” value was “not soluble”. Under “MQTKKAFLYVFNTMSDWEYGYLIAELNSGRYFKKDLAPLKVITVGANKEMITTMGGLRIKPDISLDECTLESKDLLILPGGTTWSEEIHQPILERIGQALKIGTIVAAICGATDALANMGYLDTRKHTSNNLEYTKMVCPNYKGEKFYELGPAVSDANLVTASGIAPLEFAMEVLKKIDVFTLDALHSWYNLNKTHKPEYFFQLMNSINK” stands “not soluble”; under “MQTNLLSRPTSAKSTSMSDKINHPQLCQWLESVAISRDKQAFTHLFQFFAPKILRIARGKFPNEAQANEVVQDTMSNVWRKAHLYNQDKGAATTWVYTVMRNVTFDMLRKIQGNKEDNLSDDIWPIAESMSIENEIFDDHLEHANLLSVIEELPQAQQDVVKGFYFREMSQEQLAVHLHLPLGTVKSRLRLALGKLKVQLGEKHD”, “not soluble”. Under “MQTSHSLPSAQLPLFQEAFWASNGAPLLDDVIDSPSSASIEEPAAFSELSLSGLPGHCLTLLAPILRELSEEQDARWLTLIAPPASLTHEWLRRAGLNRERILLLQAKDNAAALALSCEALRLGRSHTVVSWLEPLSRAARKQLSRAAQLGQAQSLNIRLG” stands “soluble”.

Consider “MQTSIDPVFAGWDGSVAQARQLQQQLAQRVALRDEVSAAPALLAGFDVGFEDDGQTTRAAAVLLDAQTLLPLETHVARVPTSMPYVPGLLSFRELPALLRALALLARTPDLVFIDGQGIAHPRRFGIAAHFGVVTGLPSIGVAKQRLAGTFIEPGGERGDHSPILLAGAQIGWALRSKPRCNPLIVSPGHRVSMQGALDWTLRTLRAYRLPEPTRLADRLASRRGEIELQTQPTLLLEHHHHHH”, for which the “soluble on expression in E. coli” value was “not soluble”. For “MQTVNNIISSVSTVESKAYRDAMSHYAGAVQIVTTAGAAGRRGLTLTAACSVSDNPPTILICLQKIHEENRIFIENGVFAINTLAGPHQQLADAFSGRIGLTQDERFELAAWEILATGAPVLKGALAAFDCRVVSVQDHSTHHVLFGEVVGLSSHAEEEALIYLNRRYHKLEL” the value was “soluble”.

Regarding “MQVIAFIAPLIDKGMDPLTGVPIRQEVPRLMERTFQENQAETYVLFLINLDRFKLVNDSLGEGYGDQVLQTLVRRLLWQLPNQQWIARVSGDEFIACAAIKGELPKKETLATYISSIIQQPFQVDEVQFTMTASIGAAVYPMDGKSVEMIWNSLERALRHAKARGGNCVSWFCQELKDEWIHPFRLENDLRRAVENQELEHHHHHH”, the “soluble on expression in E. coli” value is recorded as “not soluble”.

As for “MQVLWSNPIELGMTGGDVRMVKGPSDALRCLADHWPYRGPYYVAARSACRAAIDGRRTCEEARRLFLSAAEEARLKAH”, the “soluble on expression in E. coli” value is listed as “not soluble”.

“MQVSGSSGNRIWDANLSQNLTYTWTPQTYSGFYYDLDTGEGSENMTIQLTEGSRSVQRNGLQYETRPIETNFEYGNWGSYQVIGFMAERYFAGYTENSNFVNDDISVISDGQLSKILIDSDDRKSLYTGSSLILEEGYSLNIVEVDVNGNTVWVQLEKDGDVIDNGFLSSNSNYVYETDLGDADDVPLIAVHLAQIFRGTETNAIFVEGIFQISDEYVQIENGDRFGKMEISSTSSSGIIMRNRDSFTLGRGDTVDIMGKLSFVVADSSELRFAPIVEISEPGTYELRLEHHHHHH”: the “soluble on expression in E. coli” value is on record as “not soluble”. For “MQYINYRENRRRGTADFPLEYYHVTASHPQYVMSFHWHVEFELIRILSGSLTVTIDEIEFLAEAGDSIFIPAGSIHSGIPDDCVYECLVFDMNMLMNKTDSCCRFLRQITDHEVSVQTHYPKICNTIHRTLWTLFDAAASKKEGYQLVVFGAMYQFFGTLFSEGFCKNAPDEEHRSHKRILQLKQALEFMESSYNLPLTLEEISGSVNMSPKYFCRFFHEMTHRTPIDYLNYYRIERACYQLITTNLSITEIAYASGFNDLSYFIKTFKKYKGTTPKKYLKI” the value was “not soluble”; for “MRAHEIEYKLYGDDMQFVEIELDPEESVIAEAGAMMMMEDYIEMETIFGDGSGPSGGLFGKLMGAGKRLVTGESMFMTVFTNTGHGKRHVSFAAPYPGKIIPVDLTEYQGKVVCQKDAFLCAAKGVSLGIEFTKKIGTGFFGGEGFIMQKLEGDGLAFMHAGGTVYKRELKPGEKLRIDTGCLVAMTKDINYDVEFVGKVKTALFGGEGLFFATLEGPGTVWIQSLTLSRLAARLTSPAAQSTGEGSVLGGLGRLLDGKE”, “not soluble”.

For the sequence “MRCVVYSIAKSSPLELVKIYQKQCRQFDCELELVDLFPKNTANAQKVSKKLAQKSYSLAFEPYLNPKAKNIALHPKAQRGDSFAFSKMLENHLNINFFIAGAYGFEENFLKDCQAWSLSEMTFSHEVAKIVLCEQIYRALSIIFKHPYHKLEHHHHHH”, the “soluble on expression in E. coli” value is recorded as “not soluble”.
